Laboratory results as given in patent US12246067.

Molecular target: HLA-A02.01 (human)
Assay: peptide-HLA class I affinity, method not described
Conditions: remark: other sources report otherwise

| Measured Affinity [nM] | Binder |
| --- | --- |
| 977 | LVVVGADGV [KRAS, G12D peptide …] |
| 667 | LVVVGACGV [KRAS, G12C peptide …] |
| 682 | LVVVGAVGV [KRAS, G12V peptide …] |

Molecular target: HLA-A02.01 (human)
Assay: peptide-HLA class I complex stability, method not described
Conditions: remark: other sources report otherwise

| Measured stability [h] | Binder |
| --- | --- |
| 0 | LVVVGADGV [KRAS, G12D peptide …] |
| 0.6 | LVVVGACGV [KRAS, G12C peptide …] |
| 0.6 | LVVVGAVGV [KRAS, G12V peptide …] |
